# Assays:
# [1] = Equilibrium uptake and desorption of Avidin and NeutrAvidin in cartilage disks; assay type: in vitro ADME, bovine; settings: for mean uptake ratio: 24 h
# Description: Cartilage disks were harvested from the femoropatellar grooves of 1-2 week old bovine calf knee joints (obtained from Research 87, Hopkinton, Mass.) as described previously (Patwari et al., Arthritis Rheum, 2003). Briefly, cylindrical cartilage disks (3 mm or 6 mm diameter) were cored using a dermal punch and then sliced to obtain the top 1 mm of cartilage with intact superficial zone. Cartilage disks for all treatment groups were matched for depth and location along the joint surface. The disks were then pre-equilibrated in PBS (without Ca^2±/Mg^2±) supplemented with protease inhibitors (Complete Protease Cocktail tablet in 50 mL PBS, Roche Applied Science, IN) in a 37° C., 5% CO2 incubator for 24-48 h.
# Equilibrium uptake of Avidin and NeutrAvidin: 3 mm diameter, 1 mm thick cartilage explants were incubated for specific times in 300 μl of known concentration (3 μM) of FITC-Avidin and FITC-NeutrAvidin, supplemented with protease inhibitors at 37° C. in a 96 well plate format. After removal from the absorption baths, the disks were rinsed, gently wiped and then incubated in 1× or 10×PBS supplemented with protease inhibitors for 24 h or longer as specified. At the end of the experiment, the surfaces of each disk were quickly blotted with Kimwipes and the wet weight was measured. The disks were then lyophilized and the dry weight was measured; the water weight was calculated from the tissue wet and dry weights. The fluorescence signal in the absorption and desorption baths was quantified using a plate reader (1400 Wallace Victor, PerkinElmer, MA); the solute content inside the cartilage disk was determined from the difference between the fluorescence reading of the absorption/desorption baths before and after incubation. […] The solute uptake ratio was calculated as the concentration of the FITC-solute in the cartilage (per intra-tissue water weight) normalized to the concentration of FITC-solute in the equilibration bath.
# [2] = Net charge of Avidin estimated using Donnan equilibrium; assay type: physicochemical; settings: assuming uptake entirely due to Donnan partitioning, no binding
# Description: However, it is not certain whether the effective charge sensed during transport and uptake would include all these residues, or whether certain residues may be internal and less accessible to charge-charge interactions within the cartilage extracellular matrix. In addition, the unknown extent of Avidin glycosylation may contribute additional net negative charge that would decrease the total net charge. However, this estimate assumes that all such residues are ionized in aqueous solution and that none of these residues are internal (buried) and thereby inaccessible to charge-charge interactions within the cartilage matrix. Furthermore, this estimate neglects the effects of Avidin glycosylation which could add additional negative charge groups to the total sum. […]
# [formula] (Byun et al., Arch Biochem Biophys, 2010) was measured to be, −0.13 M. Rearranging Eq. (12) gives: […]
# Donnan theory (Grodzinsky et al., New York: Garland Science, 2011) is based on the assumptions that (1) all freely moving charged species (i.e., Avidin and bath ions) will partition into a charged tissue according to Boltzmann statistics and, (2) the net charge in the tissue is zero by electroneutrality (i.e., the sum of the tissue fixed charge density and mobile carrier concentrations). By fitting the Donnan theory to the equilibrium uptake data of FIG. 12A, the effective net charge of Avidin was calculated to be +6.2. […]
# [3] = dilute solution of DI water at pH 5; cited from earlier work
# [4] = Intra-articular injection of Avidin or Neutravidin in rat knee joints: penetration, uptake and retention in joint tissues; settings: for mean concentration in articular cartilage: rat, i.a. injection
# Description: Intra-articular (i.a.) injections of 50 μl of 50 μM Avidin (pI 10.5, 66 kDa, diameter ˜7 nm) or Neutravidin (neutral at pH 7, 60 kDa, diameter ˜7 nm) conjugated with Texas Red (both from Invitrogen, CA) were administered in the right knee joints of healthy 18-20 weeks old Fischer-344 rats (Charles River Laboratories). Following the injection, rat knees were flexed and extended to distribute the injected solute throughout the intra-articular space. Contralateral left knees were used as controls. Avidin injected rats were sacrificed at 4 different time points (6 h, 1 d, 4 d, 7 d) and Neutravidin injected rats were sacrificed after 1 day. The following tissue types were extracted from each joint: articular cartilage removed from the patellar groove, femoral condyle and tibial plateau using a scalpel; medial and lateral menisci; i.a. ligaments (ACL & PCL); patellar and quadriceps tendons; and femoral bone. 6 rats were used per treatment condition for a total of 30 rats. Using a digital caliper (Fisher Scientific), the joint thickness was measured before and after the injection at each time point to check for joint swelling indicating an inflammatory response to the injection.
# Tissue samples extracted from the rat joints injected with Avidin-Texas Red (Excitation at 595 nm and emission at 615 nm) and sacrificed at 6 h were imaged using a confocal microscope (OLYMPUS, FluoView FV1000) at 10× magnification by taking Z stacks. Images were taken in X-Y plane, which represents the surface through which Avidin diffused. 3D images were reconstructed using Z stacking (slice thickness˜4.5 μm) and cross-sections in the X-Z plane of these 3D images were taken.
# Tissue samples from all treatment conditions were then desorbed in 10×PBS for 48 h in 37° C. incubator to disrupt electrostatic interactions and release Avidin/Neutravidin into the desorption bath. […] At the end of the experiment, tissue samples were removed from the bath, lyophilized and the dry weight was measured. Fluorescence signal from desorption bath was quantified using a plate reader (Synergy HT, BioTek). […] The solute uptake was calculated as the concentration of labeled solute in the tissue samples normalized by tissue dry weight.
# The half-life of Avidin was calculated by fitting an exponential curve to the experimental data:
# Where, C0 is the initial and C(t) is the final Avidin concentration in tissue after time t and λ is the decay constant.
substance,measurement,setting,value
"Avidin: positively charged globular glycosylated tetrameric protein, pI 10.5, 66 kDa, diameter ~7 nm (Invitrogen); SEQ ID NO 1",percent of absorbed solute diffused out of the cartilage,"[1]; 10×PBS, within 24 h",~69%
same,mean uptake ratio,[1]; 40% GAG-depleted cartilage (chondroitinase-ABC),24
same,higher uptake of Avidin compared to NeutrAvidin,[1]; normal cartilage,greater than 400 times
same,mean uptake ratio,[1]; normal cartilage,~183
same,upper estimate of effective net charge,[2],+13 to +14
same,zeta potential,[3],10 mV
same,"knee joint inflammation (swelling, stiffness) after i.a. injection","[4]; 6 h, 1 d, 4 d and 7 d",did not present any signs of swelling or joint stiffness
same,concentration in articular cartilage as percent of 24 h value,[4]; 4 days,10.3%
same,concentration in articular cartilage as percent of 24 h value,[4]; 7 days,4.1%
same,Half-life,[4]; Cartilage,29.0 h
same,Half-life,[4]; Ligament,25.7 h
same,Half-life,[4]; Meniscus,21.4 h
same,Half-life,[4]; Patella Tendon,16.9 h
same,Half-life,[4]; Quadriceps Tendon,27.2 h
same,detection in the femoral bone,[4]; any time point,Neither Avidin nor Neutravidin was detected
same,time to diffuse through the full thickness of joint tissues after i.a. injection,"[4]; cartilage, menisci, ligaments, tendons, confocal",≤ 6 h
same,dwell time inside the joint,[4]; rat knee,7 days
same,mean concentration in articular cartilage,[4]; 6 h,4.7 μg/mg tissue dry weight
same,mean concentration in articular cartilage,[4]; 24 h,3.3 µg/mg
same,mean concentration in articular cartilage,[4]; 4 days,0.34 µg/mg
same,mean concentration in articular cartilage,[4]; 7 days,0.13 µg/mg
